Molecular target: RhoA (blot label: Myc (RhoA); legend: RhoA-GFP)
Assay: co-immunoprecipitation (IP: Myc (RhoA)) with densitometry
Settings: MN-1 cells, mean ± SEM, parent: est. 1.0, read off a plot

“TRPV4-FLAG (wild type), expressed in MN-1 cells (from UniProt Q9HBA0) R237L” gave a ratio to parent (R237L TRPV4-FLAG alone, no TRPV4-GFP co-expressed (lane 4), n = 5) of 0.05 and a ratio to parent (R237L TRPV4-FLAG co-expressed with WT TRPV4-GFP (lane 5), n = 4) of 0.04.

— publication PMC7933254
